Test results as given in US20230303680A1 (UNIVERSIT T Z RICH, published 2023).

Columns and labels:
[1] = target: T1, human interleukin-2 (recombinant human IL-2, teceleukin) (human, UniProt P60568 21-153); assay: SPR, mAb immobilized, IL-2 injected
T1 construct: also called hIL-2; rhIL-2
Method: (§1) Chip surface was regenerated after every cycle using glycine buffer pH 1.5. Measurements were acquired at 20° C. and analysed on a Biacore T100 (GE Healthcare).

[2] = target: T1, human interleukin-2 (recombinant human …); assay: SPR
[3] = target: T1, human interleukin-2 (recombinant human …); assay: SPR; remark: listed apart in the source
Method: as §1

[4] = target: T1, human interleukin-2 (recombinant human …); assay: single-cycle surface plasmon resonance (SPR)

T1 sequence (P60568 21-153 limits assumed): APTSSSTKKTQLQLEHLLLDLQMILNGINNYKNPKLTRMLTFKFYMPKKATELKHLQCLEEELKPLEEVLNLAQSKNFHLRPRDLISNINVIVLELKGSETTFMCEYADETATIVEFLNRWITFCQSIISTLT

| Binder | Kd [2] | koff [2] | kon [2] | other results |
| --- | --- | --- | --- | --- |
| NARA1 (anti-human IL-2 mAb, CD122-biasing) (antibody, V domains shown) VH: QVQLQQSGAELVRPGTSVKVSCKASGYAFTNYLIEWVKQRPGQGLEWIGVINPGSGGTNYNEKFKGKATLTADKSSSTAYMQLSSLTSDDSAVYFCARWRGDGYYAYFDVWGAGTTVTVSS VL: not shown | – | – | – | Kd [1]: 4.2 nM; koff [1]: 0.000117 s⁻¹; kon [1]: 30000 M⁻¹ s⁻¹ |
| UFKA-22-10 (antibody, human IgG1, V domains shown) VH: EVQLVESGGGLVKPGGSLRLSCAASGFSFSNYAMSWVRQAPGKGLEWVSLISGGGSYSYYPDSLKGRFTISRDSAKNSLYLQMSSLRAEDTAVYYCARHMGYNDYLAWFAYWGQGTLVTVSS VL: DIVMTQSPDSLAVSLGERATINCKSSQSLLNSANQKNYLAWYQQKPGQPPKLLIYFASTRESGVPDRFIGSGSGTDFTLTISSLQAEDVAVYYCQQYYSAPPWTFGGGTKVEIK | 5.16 nM | 0.00283 s⁻¹ | 548000 M⁻¹ s⁻¹ | – |
| UFKA-22-00 (humanized UFKA-20) (antibody, human IgG1, kappa, N297A, V domains shown, Human IgG1 with N297A) VH: EVQLVESGGGLVKPGGSLRLSCAASGFSFSNYAMSWVRQAPGKGLEWVSLISGGGSYSYYPDSLKGRFTISRDNAKNSLYLQMNSLRAEDTAVYYCARHMGYNDYLAWFAYWGQGTLVTVSS VL: not shown | 5.13 nM | 0.00239 s⁻¹ | 466000 M⁻¹ s⁻¹ | Kd [3]: 5.13 nM; koff [3]: 0.00239 s⁻¹; kon [3]: 466000 M⁻¹ s⁻¹ |
| UFKA-22-03 (antibody, human IgG1, V domains shown) VH: EVQLVESGGGLVKPGGSLRLSCAASGFSFSNYAMSWVRQAPGKGLEWVSLISGGGSYSYYPDSLKGRFTISRDSAKNSLYLQMSSLRAEDTAVYYCARHMGYNDYLAWFAYWGQGTLVTVSS VL: not shown | 4.73 nM | 0.00279 s⁻¹ | 590000 M⁻¹ s⁻¹ | – |
| UFKA-22-01 (antibody, human IgG1, V domains shown) VH: EVQLVESGGGLVKPGGSLRLSCAASGFSFSNYAMSWVRQAPGKGLEWVSLISGGGSYSYYPDSLKGRFTISRDSAKNSLYLQMNSLRAEDTAVYYCARHMGYNDYLAWFAYWGQGTLVTVSS VL: not shown | 5.31 nM | 0.00252 s⁻¹ | 475000 M⁻¹ s⁻¹ | – |
| UFKA-22-11 (antibody, human IgG1, V domains shown) VH: EVQLVESGGGLVKPGGSLRLSCAASGFSFSNYAMSWVRQAPGKGLEWVSLISGGGSYSYYPDSLKGRFTISRDSAKNSLYLQMNSLRAEDTAMYYCARHMGYNDYLAWFAYWGQGTLVTVSS VL: DIVMTQSPDSLAVSLGERATINCKSSQSLLNSANQKNYLAWYQQKPGQPPKLLIYFASTRESGVPDRFIGSGSGTDFTLTISSLQAEDVAVYYCQQYYSAPPWTFGGGTKVEIK | 5.31 nM | 0.00275 s⁻¹ | 517000 M⁻¹ s⁻¹ | – |
| UFKA-22-14 (antibody, human IgG1, V domains shown) VH: EVQLVESGGGLVKPGGSLRLSCAASGFSFSNYAMSWVRQAPGKGLEWVSLISGGGSYSYYPDSLKGRFTISRDNAKNSLYLQMNSLRAEDTAVYYCARHMGYNDYLAWFAYWGQGTLVTVSA VL: DIVMTQSPDSLAVSLGERATINCKSSQSLLNSANQKNYLAWYQQKPGQPPKLLIYFASTRESGVPDRFIGSGSGTDFTLTISSLQAEDVAVYYCQQYYSAPPWTFGGGTKVEIK | 4.3 nM | 0.0024 s⁻¹ | 560000 M⁻¹ s⁻¹ | – |
| UFKA-22-09 (antibody, human IgG1, V domains shown) VH: EVQLVESGGGLVKPGGSLRLSCAASGFSFSNYAMSWVRQAPGKGLEWVSLISGGGSYSYYPDSLKGRFTISRDNAKNSLYLQMSSLRAEDTAVYYCARHMGYNDYLAWFAYWGQGTLVTVSS VL: DIVMTQSPDSLAVSLGERATINCKSSQSLLNSANQKNYLAWYQQKPGQPPKLLIYFASTRESGVPDRFIGSGSGTDFTLTISSLQAEDVAVYYCQQYYSAPPWTFGGGTKVEIK | 5.27 nM | 0.00246 s⁻¹ | 466000 M⁻¹ s⁻¹ | – |
| 4 + 9 (antibody, V domains shown, UFKA-20 variant; also called UFKA-20 variant 4+9; vH chain 4, vL chain 9; copies: 2 + 2) VH: EVMLVESGGGLVKPGGSLKLSCAASGFSFSNYAMSWVRQTPERRLEWVALISGGGRYSYYPDSLKGRFTISRDSARNSLYLQMSSLRSEDTAMYYCARHMGHNDYLAWFAYWGQGTLVTVSS VL: DIVMTQSPSSLAVSVGQKVTMSCKSSQSLLNSANQRNYLAWYQQKPGQSPKLLIYWASTRESGVPDRFIGSGSGTDFTLNISSVQAEDLADYFCQQYYSAPPWTFGGGTKLEIKR | – | – | – | Kd [4]: 1.02 nM |
| 103 + 9 (antibody, V domains shown, UFKA-20 variant; copies: 2 + 2) VH: EVMLVESGGGLVKPGGSLKLSCAASGFSFSNYAMSWVRQTPERRLEWVALISGGGSYSYYPDSLKGRFTISRDSARNSLYLQMSSLRSEDTAMYYCARHMGYADYLAWFAYWGQGTLVTVSS VL: DIVMTQSPSSLAVSVGQKVTMSCKSSQSLLNSANQRNYLAWYQQKPGQSPKLLIYWASTRESGVPDRFIGSGSGTDFTLNISSVQAEDLADYFCQQYYSAPPWTFGGGTKLEIKR | – | – | – | Kd [4]: 2.7 nM |
| 105 + 6 (antibody, V domains shown, UFKA-20 variant; also called UFKA-20 variant 105+6; vH chain 105, vL chain 6; copies: 2 + 2) VH: EVMLVESGGGLVKPGGSLKLSCAASGFSFSNYAMSWVRQTPERRLEWVALISGGGSYSYYPDSLKGRFTISRDSARNSLYLQMSSLRSEDTAMYYCARHMGYNDALAWFAYWGQGTLVTVSS VL: not shown | – | – | – | Kd [4]: 0.429 nM |
| 105 + 9 (antibody, V domains shown, UFKA-20 variant; also called UFKA-20 variant 105+9; vH chain 105, vL chain 9; copies: 2 + 2) VH: EVMLVESGGGLVKPGGSLKLSCAASGFSFSNYAMSWVRQTPERRLEWVALISGGGSYSYYPDSLKGRFTISRDSARNSLYLQMSSLRSEDTAMYYCARHMGYNDALAWFAYWGQGTLVTVSS VL: DIVMTQSPSSLAVSVGQKVTMSCKSSQSLLNSANQRNYLAWYQQKPGQSPKLLIYWASTRESGVPDRFIGSGSGTDFTLNISSVQAEDLADYFCQQYYSAPPWTFGGGTKLEIKR | – | – | – | Kd [4]: 0.271 nM |
| 4 + 10 (antibody, V domains shown, UFKA-20 variant; also called UFKA-20 variant 4+10; vH chain 4, vL chain 10; copies: 2 + 2) VH: EVMLVESGGGLVKPGGSLKLSCAASGFSFSNYAMSWVRQTPERRLEWVALISGGGRYSYYPDSLKGRFTISRDSARNSLYLQMSSLRSEDTAMYYCARHMGHNDYLAWFAYWGQGTLVTVSS VL: DIVMTQSPSSLAVSVGQKVTMSCKSSQSLLNVSNQRNYLAWYQQKPGQSPKLLIYFASTRESGVPDRFIGSGSGTDFTLNISSVQAEDLADYFCQQYYSCPPWTFGGGTKLEIKR | – | – | – | Kd [4]: 33.6 nM |
| 103 + 6 (antibody, V domains shown, UFKA-20 variant; copies: 2 + 2) VH: EVMLVESGGGLVKPGGSLKLSCAASGFSFSNYAMSWVRQTPERRLEWVALISGGGSYSYYPDSLKGRFTISRDSARNSLYLQMSSLRSEDTAMYYCARHMGYADYLAWFAYWGQGTLVTVSS VL: not shown | – | – | – | Kd [4]: 2.09 nM |

Continued, in another order:

| Kd [2] | koff [2] | kon [2] | Binder | other results |
| --- | --- | --- | --- | --- |
| 5.17 nM | 0.00251 s⁻¹ | 486000 M⁻¹ s⁻¹ | UFKA-22-07 (antibody, human IgG1, V domains shown) VH: EVQLVESGGGLVKPGGSLRLSCAASGFSFSNYAMSWVRQAPGKGLEWVSLISGGGSYSYYPDSLKGRFTISRDNAKNSLYLQMNSLRAEDTAVYYCARHMGYNDYLAWFAYWGQGTLVTVSS VL: DIVMTQSPDSLAVSLGERATINCKSSQSLLNSANQKNYLAWYQQKPGQPPKLLIYFASTRESGVPDRFIGSGSGTDFTLTISSLQAEDVAVYYCQQYYSAPPWTFGGGTKVEIK | Kd [3]: 5.17 nM; koff [3]: 0.00251 s⁻¹; kon [3]: 486000 M⁻¹ s⁻¹ |
| 4.45 nM | 0.00252 s⁻¹ | 567000 M⁻¹ s⁻¹ | UFKA-22-06 (antibody, human IgG1, V domains shown) VH: EVQLVESGGGLVKPGGSLRLSCAASGFSFSNYAMSWVRQAPGKGLEWVSLISGGGSYSYYPDSLKGRFTISRDSAKNSLYLQMSSLRAEDTAMYYCARHMGYNDYLAWFAYWGQGTLVTVSS VL: not shown | – |
| 5.51 nM | 0.00227 s⁻¹ | 412000 M⁻¹ s⁻¹ | UFKA-22-02 (antibody, human IgG1, V domains shown) VH: EVQLVESGGGLVKPGGSLRLSCAASGFSFSNYAMSWVRQAPGKGLEWVSLISGGGSYSYYPDSLKGRFTISRDNAKNSLYLQMSSLRAEDTAVYYCARHMGYNDYLAWFAYWGQGTLVTVSS VL: not shown | Kd [3]: 5.51 nM; koff [3]: 0.00227 s⁻¹; kon [3]: 412000 M⁻¹ s⁻¹ |
| 5.03 nM | 0.00241 s⁻¹ | 479000 M⁻¹ s⁻¹ | UFKA-22-04 (antibody, human IgG1, V domains shown) VH: EVQLVESGGGLVKPGGSLRLSCAASGFSFSNYAMSWVRQAPGKGLEWVSLISGGGSYSYYPDSLKGRFTISRDSAKNSLYLQMNSLRAEDTAMYYCARHMGYNDYLAWFAYWGQGTLVTVSS VL: not shown | – |
| 5.05 nM | 0.0024 s⁻¹ | 474000 M⁻¹ s⁻¹ | UFKA-22-12 (antibody, human IgG1, V domains shown) VH: EVQLVESGGGLVKPGGSLRLSCAASGFSFSNYAMSWVRQAPGKGLEWVSLISGGGSYSYYPDSLKGRFTISRDNAKNSLYLQMSSLRAEDTAMYYCARHMGYNDYLAWFAYWGQGTLVTVSS VL: DIVMTQSPDSLAVSLGERATINCKSSQSLLNSANQKNYLAWYQQKPGQPPKLLIYFASTRESGVPDRFIGSGSGTDFTLTISSLQAEDVAVYYCQQYYSAPPWTFGGGTKVEIK | – |
| 4.86 nM | 0.0022 s⁻¹ | 452000 M⁻¹ s⁻¹ | UFKA-22-05 (antibody, human IgG1, V domains shown) VH: EVQLVESGGGLVKPGGSLRLSCAASGFSFSNYAMSWVRQAPGKGLEWVSLISGGGSYSYYPDSLKGRFTISRDNAKNSLYLQMSSLRAEDTAMYYCARHMGYNDYLAWFAYWGQGTLVTVSS VL: not shown | – |
| 4.56 nM | 0.00277 s⁻¹ | 607000 M⁻¹ s⁻¹ | UFKA-22-13 (antibody, human IgG1, V domains shown) VH: EVQLVESGGGLVKPGGSLRLSCAASGFSFSNYAMSWVRQAPGKGLEWVSLISGGGSYSYYPDSLKGRFTISRDSAKNSLYLQMSSLRAEDTAMYYCARHMGYNDYLAWFAYWGQGTLVTVSS VL: DIVMTQSPDSLAVSLGERATINCKSSQSLLNSANQKNYLAWYQQKPGQPPKLLIYFASTRESGVPDRFIGSGSGTDFTLTISSLQAEDVAVYYCQQYYSAPPWTFGGGTKVEIK | – |
| 5.33 nM | 0.00275 s⁻¹ | 515000 M⁻¹ s⁻¹ | UFKA-22-08 (antibody, human IgG1, V domains shown) VH: EVQLVESGGGLVKPGGSLRLSCAASGFSFSNYAMSWVRQAPGKGLEWVSLISGGGSYSYYPDSLKGRFTISRDSAKNSLYLQMNSLRAEDTAVYYCARHMGYNDYLAWFAYWGQGTLVTVSS VL: DIVMTQSPDSLAVSLGERATINCKSSQSLLNSANQKNYLAWYQQKPGQPPKLLIYFASTRESGVPDRFIGSGSGTDFTLTISSLQAEDVAVYYCQQYYSAPPWTFGGGTKVEIK | – |
